Laboratory results: patent publication US6096512A, “Cloned DNA encoding a UDP-GalNAc: Polypeptide, N-acetylgalactosaminyltransferase” (Pharmacia & Upjohn Company, priority 1997, dated 2000)
Entries after “also recorded” stand apart in the source; their conditions may differ.

T1: bovine colostrum GalNAc-transferase (Bos taurus, UniProt Q07537)
T1 sequence (Q07537 41-559): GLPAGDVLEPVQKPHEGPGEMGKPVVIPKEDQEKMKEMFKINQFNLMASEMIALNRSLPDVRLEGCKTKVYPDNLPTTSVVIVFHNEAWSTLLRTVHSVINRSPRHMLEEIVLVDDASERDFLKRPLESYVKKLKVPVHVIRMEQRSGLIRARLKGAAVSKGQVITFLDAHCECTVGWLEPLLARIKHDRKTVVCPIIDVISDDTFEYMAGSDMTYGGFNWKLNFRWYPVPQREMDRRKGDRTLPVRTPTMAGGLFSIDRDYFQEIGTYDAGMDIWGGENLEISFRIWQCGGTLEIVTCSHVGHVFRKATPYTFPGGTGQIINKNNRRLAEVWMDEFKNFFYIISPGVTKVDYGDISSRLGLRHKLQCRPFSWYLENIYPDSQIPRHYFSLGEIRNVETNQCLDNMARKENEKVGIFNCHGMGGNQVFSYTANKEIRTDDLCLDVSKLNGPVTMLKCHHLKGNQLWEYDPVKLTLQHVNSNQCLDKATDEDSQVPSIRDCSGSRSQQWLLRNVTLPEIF

B1: GalNAcT-Mel: recombinant baculovirus that expresses a secreted form of GalNAc-transferase with honeybee melittin signal peptide (protein)
chain: DPSPALEPVQKPHEGPGEMGKPVVIPKEDQEKMKEMFKINQFNLMASEMIALNRSLPDVRLEGCKTKVYPDNLPTTSVVIVFHNEAWSTLLRTVHSVINRSPRHMLEEIVLVDDASERDFLKRPLESYVKKLKVPVHVIRMEQRSGLIRARLKGAAVSKGQVITFLDAHCECTVGWLEPLLARIKHDRKTVVCPIIDVISDDTFEYMAGSDMTYGGFNWKLNFRWYPVPQREMDRRKGDRTLPVRTPTMAGGLFSIDRDYFQEIGTYDAGMDIWGGENLEISFRIWQCGGTLEIVTCSHVGHVFRKATPYTFPGGTGQIINKNNRRLAEVWMDEFKNFFYIISPGVTKVDYGDISSRLGLRHKLQCRPFSWYLENIYPDSQIPRHYFSLGEIRNVETNQCLDNMARKENEKVGIFNCHGMGGNQVFSYTANKEIRTDDLCLDVSKLNGPVTMLKCHHLKGNQLWEYDPVKLTLQHVNSNQCLDKATDEDSQVPSIRDCSGSRSQQWLLRNVTLPEIF
B2: GalNAcT 2-1.A: baculovirus isolate of the full length GalNAc-transferase gene (pAC373-GalNAcT) expressed in Sf9 cells (protein)
chain: MRKFAYCKVVLATSLIWVLLDMFLLLYFSECNKCDEKKERGLPAGDVLEPVQKPHEGPGEMGKPVVIPKEDQEKMKEMFKINQFNLMASEMIALNRSLPDVRLEGCKTKVYPDNLPTTSVVIVFHNEAWSTLLRTVHSVINRSPRHMLEEIVLVDDASERDFLKRPLESYVKKLKVPVHVIRMEQRSGLIRARLKGAAVSKGQVITFLDAHCECTVGWLEPLLARIKHDRKTVVCPIIDVISDDTFEYMAGSDMTYGGFNWKLNFRWYPVPQREMDRRKGDRTLPVRTPTMAGGLFSIDRDYFQEIGTYDAGMDIWGGENLEISFRIWQCGGTLEIVTCSHVGHVFRKATPYTFPGGTGQIINKNNRRLAEVWMDEFKNFFYIISPGVTKVDYGDISSRLGLRHKLQCRPFSWYLENIYPDSQIPRHYFSLGEIRNVETNQCLDNMARKENEKVGIFNCHGMGGNQVFSYTANKEIRTDDLCLDVSKLNGPVTMLKCHHLKGNQLWEYDPVKLTLQHVNSNQCLDKATDEDSQVPSIRDCSGSRSQQWLLRNVTLPEIF
B3: GalNAcT 2-1.B: baculovirus isolate of the full length GalNAc-transferase gene (pAC373-GalNAcT) expressed in Sf9 cells (protein)
chain: MRKFAYCKVVLATSLIWVLLDMFLLLYFSECNKCDEKKERGLPAGDVLEPVQKPHEGPGEMGKPVVIPKEDQEKMKEMFKINQFNLMASEMIALNRSLPDVRLEGCKTKVYPDNLPTTSVVIVFHNEAWSTLLRTVHSVINRSPRHMLEEIVLVDDASERDFLKRPLESYVKKLKVPVHVIRMEQRSGLIRARLKGAAVSKGQVITFLDAHCECTVGWLEPLLARIKHDRKTVVCPIIDVISDDTFEYMAGSDMTYGGFNWKLNFRWYPVPQREMDRRKGDRTLPVRTPTMAGGLFSIDRDYFQEIGTYDAGMDIWGGENLEISFRIWQCGGTLEIVTCSHVGHVFRKATPYTFPGGTGQIINKNNRRLAEVWMDEFKNFFYIISPGVTKVDYGDISSRLGLRHKLQCRPFSWYLENIYPDSQIPRHYFSLGEIRNVETNQCLDNMARKENEKVGIFNCHGMGGNQVFSYTANKEIRTDDLCLDVSKLNGPVTMLKCHHLKGNQLWEYDPVKLTLQHVNSNQCLDKATDEDSQVPSIRDCSGSRSQQWLLRNVTLPEIF
B4: Bovine rhodanese: cytoplasmic protein containing three strong predicted glycosylation sites (protein)
chain: VHQVLYRALVSTKWLAESVRAGKVGPGLRVLDASWYSPGTREARKEYLERHVPGASFFDIEECRDKASPYEVMLPSEAGFADYVGSLGISNDTHVVVYDGDDLGSFYAPRVWWMFRVFGHRTVSVLNGGFRNWLKEGHPVTSEPSRPEPAIFKATLNRSLLKTYEQVLENLESKRFQLVDSRAQGRYLGTQPEPDAVGLDSGHIRGSVNMPFMNFLTEDGFEKSPEELRAMFEAKKVDLTKPLIATCRKGVTACHIALAAYLCGKPDVAIYDGSWFEWFHRAPPETWVSQGKGGKA
B5: Subtilisin: bacterial protein produced by a microbial system incapable of O-linked oligosaccharide biosynthesis (protein, UniProt P00782 108-382, looked up)
Subtilisin BPN': AQSVPYGVSQIKAPALHSQGYTGSNVKVAVIDSGIDSSHPDLKVAGGASMVPSETNPFQDNNSHGTHVAGTVAALNNSIGVLGVAPSASLYAVKVLGADGSGQYSWIINGIEWAIANNMDVINMSLGGPSGSAALKAAVDKAVASGVVVVAAAGNEGTSGSSSTVGYPGKYPSVIAVGAVDSSNQRASFSSVGPELDVMAPGVSIQSTLPGNKYGAYNGTSMASPHVAGAAALILSKHPNWTNTQVRSSLENTTTKLGDSFYYGKGLINVQAAAQ

Assays:
[1] = tested on: GalNAc-transferase activity in Sf9 cells; test: Expression of baculovirus isolates of soluble GalNAc-transferase in Sf9 cells, total activity; assay type: cell-based, Spodoptera frugiperda; settings: for Total activity, cell lysate / Total activity, culture medium: 65 hours post infection; for Total activity, cell lysate: 1X10^6 cells; for Total activity, culture medium: culture medium volume 5 ml
Method: GalNAcTs was routinely expressed in one liter batches. Approximately 1×10^9 cells in one liter Grace's serum-free insect medium (Insect Express) were infected with 5 pfu/cell of GalNAcTs-Mel. The infected cells were cultured in shaker flasks for 65 hours before harvest.
^a 1 unit equals one mole Nacetylgalactosamine transferred to apomuci
per minute, under assay conditions.
Cells (1X10^6) were infected with recombinant virus containing GalNAcTs-Mel (5 pfu/cell). The cells were harvestd 65 hours post infrction, lysed in a detergent containing buffer and the GalNac-transferase activity was determined in the cell lysates and the corresponding culture media; lysate and culture medium from uninfected cells were assayed as control. The numbers have been adjusted for differences in protein content in the cell lysates; the volume of the culture media was 5 ml.

[2] = tested on: GalNAc-transferase activity in Sf9 cells; test: Expression of baculovirus isolates of the GalNAc-transferase in Sf9 cells, GalNAcT activity; assay type: cell-based, Spodoptera frugiperda; settings: for Specific activity: Sf9 cell lysates, 48 hours post infection; for Relative rate: relative to uninfected cells
Method: (§1) The standard assay for UDP-GalNAc:polypeptide, N-acetylgalactosaminyltransferase activity during purification contained the following components in a final volume of 80 μl: 50 mM Imidazole pH 7.2, 10 mM MnCl2, 0.5% Triton X-100, 15 μM UDP-GalNAc, UDP[1-^3 H-] GalNAc (27,000 cpm/assay), 0.15 mg/ml apomucin and varying amounts of enzyme (see individual experiments). The reaction mixture is incubated at 37° C. for 5-10 minutes (see individual experiments) and the reaction product is TCA precipitated and radioactivity measured as described. Assays for activity in lysates from Spodoptera frugiperda cell line 9 (hereinafter referred to as Sf9 cells) are carried out as described by Thomsen et al., (1990).
The putative GalNAcT coding region, pCR1000-91B, is digested with SstII and HindIII (both enzymes cut only in pCR1000 sequences that flank the insert; FIG. 2C) and these sites are blunted using T4 DNA polymerase so that it can be cloned into a baculovirus expression vector. BamHI linkers are then ligated onto the blunted ends and the resulting sample is ligated into the BamHI site of the baculovirus expression vector pAC373 (Summers and Smith, 1986). The resulting isolates are screened for proper orientation of the GalNAcT open reading frame with respect to the baculovirus polyhedron promoter, to yield pAC373-GalNAcT. Cotransfection of Sf9 cells with pAC373-GaINAcT and linearized baculovirus DNA from PharMingen's baculoGold transfection kit is performed using calcium phosphate precipitation (Summers & Smith, 1986). The baculovirus DNA provided in the PharMingen transfection kit contains a lethal mutation that can be corrected by homologous recombination with sequences contained in the pAC373 vector. Therefore, following transfection, only recombinant viruses will grow on Sf9 cells. Transfections are done in duplicate and the resulting virus samples are referred to as GalNAcT 2-1A and GaINAcT 2-1B. Cells are harvested 48 hours post infection and lysed in a detergent containing buffer. Following sedimentation of undissolved material, the cleared lysates are assayed for GalNAcT activity. Lysates from uninfected cells or from cells infected with either a baculovirus containing an unrelated gene, CMV-POL (human cytomegalovirus DNA polymerase gene), or two separate baculovirus isolates of the GaINAcT gene, GalNAcT 2-1A and GaINAcT 2-1B, are assayed.

[3] = target: T1, bovine colostrum GalNAc-transferase; test: Transfer of N-acetylgalactosamine to protein acceptors by bovine colostrum GalNAc-transferase; assay type: biochemical; settings: for Product formed, native acceptor / Product formed, reduced and carboxymethylated acceptor: acceptor 65 μM, enzyme approximately 65 mU/ml, 60 minutes; for Product formed, reduced and carboxymethylated acceptor: myelin basic protein was not reduced and carboxymethylated; for acceptor activity in words: native or reduced and carboxymethylated
Method: as §1
The above conclusions and the predictions of the specificity algorithm are validated experimentally by studying the ability of bovine colostrum GalNAc-transferase to transfer N-acetylgalactosamine to a variety of acceptors, both native proteins and synthetic acceptor peptides. The transfer of N-acetylgalactosamine to protein acceptors is assayed as described by Elhammer and Kornfeld, 1986, with minor modifications. The concentration of UDP-GalNAc is saturating in all assays; a Km of 8 μM is reported for bovine colostrum GalNAc-transferase (Elhammer and Kornfeld, 1986).
The transfer of N-acetylgalactosamine to protein acceptors was assayed
under standard conditions (see Material and Methods). The acceptor
concentration was 65 μM, the enzyme concentration approximately
65 mU/ml and assay time was 60 minutes. The transfer to both native and
reduced-carboxymethylated acceptors was assayed.

| Molecule | Total activity, cell lysate [1] [U] | Total activity, culture medium [1] [U] | Specific activity [2] [Units/mg protein] | Relative rate [2] | Product formed, native acceptor [3] [nmol/min/mg] | Product formed, reduced and carboxymethylated acceptor [3] [nmol/min/mg] | also measured |
| --- | --- | --- | --- | --- | --- | --- | --- |
| B1 | 32.15 | 57.80 |  |  |  |  | portion of total enzymatic activity retained inside the cells [1]: 36%; activity in medium relative to cells expressing the full length molecule ([1]; culture medium): more than 35 times; increase in GalNAc-transferase activity in the culture medium ([1]; vs uninfected cells): 130 fold |
| B2 | 16.22 | 1.61 | 13.9 | 87 |  |  |  |
| B3 |  |  | 11.9 | 74 |  |  |  |
| B4 |  |  |  |  | < 0.1 | 3.3 | acceptor activity in words ([3]; listed as bovine rhodanese): neither of them reacts unless reduced and carboxymethylated; acceptor activity in words ([3]; listed as rhodanese): neither subtilisin nor rhodanese showed any acceptor activity without prior reduction and carboxymethylation |
| B5 |  |  |  |  | < 0.1 | 0.6 | transfer rate slower than to myelin basic protein ([3]; denatured subtilisin vs myelin basic protein): 35 times; acceptor activity in words [3]: neither of them reacts unless reduced and carboxymethylated; also recorded: neither subtilisin nor rhodanese showed any acceptor activity without prior reduction and carboxymethylation |
